{"source": "paper PMC2683190", "about": "(Neurobiology of disease, 2009)", "binders": {"B1": {"name": "GST-LIF (human leukemia inhibitory factor as glutathione-S-transferase fusion protein) (ligand)", "chain": "not shown"}}, "key": {"[1]": {"target": "T1, soluble LIFR (leukemia inhibitory factor receptor) (UniProt P42702 45-833)", "T1 sequence (looked up)": "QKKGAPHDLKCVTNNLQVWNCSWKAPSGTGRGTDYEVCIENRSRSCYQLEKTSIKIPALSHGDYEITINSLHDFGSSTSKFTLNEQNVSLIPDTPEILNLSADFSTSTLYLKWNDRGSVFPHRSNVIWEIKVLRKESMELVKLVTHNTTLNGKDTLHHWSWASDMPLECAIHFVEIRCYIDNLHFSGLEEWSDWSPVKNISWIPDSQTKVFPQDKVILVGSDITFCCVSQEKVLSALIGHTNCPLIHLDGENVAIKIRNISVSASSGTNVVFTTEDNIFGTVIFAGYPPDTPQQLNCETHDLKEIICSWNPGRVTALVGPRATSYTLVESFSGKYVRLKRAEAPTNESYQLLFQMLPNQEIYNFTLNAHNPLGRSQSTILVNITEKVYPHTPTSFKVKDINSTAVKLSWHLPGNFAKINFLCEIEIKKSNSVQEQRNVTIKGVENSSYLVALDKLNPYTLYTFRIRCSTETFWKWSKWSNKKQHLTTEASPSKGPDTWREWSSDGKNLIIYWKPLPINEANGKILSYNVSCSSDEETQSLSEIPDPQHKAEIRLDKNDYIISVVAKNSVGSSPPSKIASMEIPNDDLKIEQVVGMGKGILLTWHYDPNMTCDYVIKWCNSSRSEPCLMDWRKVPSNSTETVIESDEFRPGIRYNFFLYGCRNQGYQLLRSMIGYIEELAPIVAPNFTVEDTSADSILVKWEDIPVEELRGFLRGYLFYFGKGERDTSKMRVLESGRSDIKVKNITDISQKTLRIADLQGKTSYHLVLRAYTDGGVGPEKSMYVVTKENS", "test": "SPR"}, "[2]": {"target": "T2, soluble gp130 (glycoprotein 130) (UniProt P40189 23-619)", "T2 sequence (looked up)": "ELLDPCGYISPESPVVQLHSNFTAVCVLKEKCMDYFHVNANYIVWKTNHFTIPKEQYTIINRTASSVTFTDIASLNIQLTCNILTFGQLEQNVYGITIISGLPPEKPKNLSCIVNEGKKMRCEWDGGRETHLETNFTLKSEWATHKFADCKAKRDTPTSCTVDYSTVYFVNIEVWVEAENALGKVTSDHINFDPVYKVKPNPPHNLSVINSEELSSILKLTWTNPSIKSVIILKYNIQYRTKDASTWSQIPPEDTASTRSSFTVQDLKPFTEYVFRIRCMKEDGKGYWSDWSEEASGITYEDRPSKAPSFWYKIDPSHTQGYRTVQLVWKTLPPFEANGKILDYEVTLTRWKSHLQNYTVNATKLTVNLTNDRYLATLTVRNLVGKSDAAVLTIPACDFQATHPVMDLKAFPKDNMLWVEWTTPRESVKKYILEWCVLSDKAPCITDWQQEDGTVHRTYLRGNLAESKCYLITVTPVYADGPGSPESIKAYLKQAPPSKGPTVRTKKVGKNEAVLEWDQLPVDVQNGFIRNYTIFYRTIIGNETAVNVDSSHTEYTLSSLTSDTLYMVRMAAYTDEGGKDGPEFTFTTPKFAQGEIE", "test": "SPR"}}, "data": [{"binder": "B1", "values": [{"measurement": "Kd", "setting": "[1]", "value": 2.93, "unit": "nM"}, {"measurement": "koff", "setting": "[1]", "value": 0.00107, "unit": "s⁻¹"}, {"measurement": "kon", "setting": "[1]", "value": 366000, "unit": "M⁻¹ s⁻¹"}, {"measurement": "Kd", "setting": "[2]", "value": 9.02, "unit": "nM"}, {"measurement": "koff", "setting": "[2]", "value": 0.0017, "unit": "s⁻¹"}, {"measurement": "kon", "setting": "[2]", "value": 188000, "unit": "M⁻¹ s⁻¹"}]}]}
